Assay results as given in the supplement of paper PMC9876800.

Test system: peptide library, one residue held at a place counted from the S/T acceptor
Experiment: relative phosphorylation of the sub-library (ratio to the mean residue at this position); higher = residue favoured
How it was run: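 Human or orthologue kinase constructs, purified and recombinant, were incubated under kinase-specific conditions in 384-well plates with biotinylated degenerate peptide sub-libraries. Each sub-library fixed one residue at one position around a central Ser/Thr. Incubations lasted 90 min with peptides at 50 μM and 50 μM ATP spiked with γ-32P-ATP, after which spots on streptavidin membranes were phosphorimaged and quantified by densitometry. Relative sub-library phosphorylation is a ratio to the mean residue at that position.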

Chain of RPS6KB1, construct: aa1-421, human (P23443 1-421, looked up): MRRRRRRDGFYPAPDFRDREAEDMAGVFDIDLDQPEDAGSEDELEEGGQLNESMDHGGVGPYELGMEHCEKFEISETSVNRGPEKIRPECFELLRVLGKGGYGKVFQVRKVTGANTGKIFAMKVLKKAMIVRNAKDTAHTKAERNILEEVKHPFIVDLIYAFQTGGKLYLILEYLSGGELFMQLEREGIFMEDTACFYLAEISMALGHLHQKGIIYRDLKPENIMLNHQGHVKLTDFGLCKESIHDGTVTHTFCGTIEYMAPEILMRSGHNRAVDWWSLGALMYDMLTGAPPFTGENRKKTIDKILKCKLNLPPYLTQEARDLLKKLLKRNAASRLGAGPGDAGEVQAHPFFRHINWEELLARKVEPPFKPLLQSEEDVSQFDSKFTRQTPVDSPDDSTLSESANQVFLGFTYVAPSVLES

PRKCD, construct: Full length, human (from UniProt Q05655)
relative phosphorylation
Settings	at +1	at +2	at +3	at +4	at -1	at -2	at -3	at -4	at -5
A fixed	0.496	0.437	0.73	0.842	0.91	0.9	0.795	1.04	1.04
D fixed	0.253	0.525	0.696	1.03	0.598	0.587	0.699	0.932	1.2
E fixed	0.309	0.317	0.608	0.63	0.465	0.531	0.579	0.972	0.903
F fixed	1.51	0.438	0.642	0.4	0.549	0.621	0.594	0.703	0.815
G fixed	0.553	0.459	1.11	1.28	1.64	1.2	0.977	1.36	1.18
H fixed	0.803	1.39	0.871	1.23	0.961	1.13	1.17	1.14	1.07
I fixed	1.65	0.64	0.781	0.695	0.355	0.466	0.401	0.617	0.809
K fixed	1.74	3.33	2.15	2.05	2.3	1.9	1.91	1.55	1.48
L fixed	1.21	0.564	0.846	0.757	0.658	0.506	0.464	0.608	0.78
M fixed	1.58	0.69	0.801	0.731	0.852	0.677	0.576	0.807	0.657
N fixed	0.685	1	1.04	1.13	1.38	1.22	1.07	1.1	0.932
P fixed	0.343	0.487	0.68	1.54	1.29	0.835	1.12	1.18	1.17
Q fixed	1.18	0.93	1.04	1.19	1.35	1.23	1.01	0.979	0.868
R fixed	1.6	3.33	2.03	1.48	1.74	3.16	3.86	1.58	1.65
V fixed	1.39	0.648	0.742	0.65	0.583	0.522	0.406	0.691	0.769
W fixed	0.743	0.741	1.12	0.746	0.527	0.806	0.658	1.1	0.993
Y fixed	0.961	1.07	1.11	0.625	0.834	0.713	0.707	0.638	0.685
pThr fixed	0.685	0.458	0.52	0.675	0.341	0.563	0.624	0.713	0.644
pTyr fixed	0.469	0.662	0.56	0.396	0.465	0.576	0.541	0.524	0.673

RPS6KB1, construct: aa1-421, human (from UniProt P23443)
relative phosphorylation
Settings	at +1	at +2	at +3	at +4	at -1	at -2	at -3	at -4	at -5
A fixed	0.718	0.952	0.865	0.956	0.716	0.67	0.516	0.839	0.539
D fixed	0.458	0.433	0.664	0.933	0.802	0.231	0.188	0.433	0.362
E fixed	0.849	0.268	0.694	0.703	0.577	0.25	0.194	0.694	0.323
F fixed	2.01	0.855	1.22	0.909	0.878	0.823	0.421	0.73	0.721
G fixed	0.804	1.68	1.13	1.18	0.562	0.48	0.318	0.724	0.608
H fixed	1.19	1.65	1.45	1.38	1.28	1.14	0.949	1.11	1.21
I fixed	1.07	0.942	0.914	0.909	0.768	0.741	0.37	0.708	0.593
K fixed	0.932	0.794	0.982	0.943	1.35	2.56	1.45	2.08	1.92
L fixed	1.18	0.933	0.976	0.868	1.12	1.24	0.426	0.802	0.714
M fixed	1.39	1	0.794	0.863	1.19	0.87	0.452	0.947	0.529
N fixed	0.746	1.41	0.87	1.07	1.31	0.763	0.41	0.904	0.66
P fixed	0.328	0.816	0.955	1.26	1.2	0.289	0.297	0.794	0.645
Q fixed	0.717	0.707	1	0.966	0.957	0.841	0.541	1.05	0.934
R fixed	0.944	1.61	1.08	0.784	1.3	3.7	8.82	2.34	5.28
V fixed	1.19	1.06	0.772	0.926	1.01	0.596	0.362	1.01	0.562
W fixed	1.42	0.935	1.43	1.26	0.8	0.751	0.658	0.989	0.738
Y fixed	1.05	0.955	1.21	1.09	1.17	1.05	0.624	0.849	0.661
pThr fixed	0.905	0.467	0.716	1.36	0.384	0.275	0.231	0.55	0.429
pTyr fixed	1.39	0.696	0.954	1.14	1.77	0.451	0.348	0.598	0.579
